How the values were obtained:
Assay in all cases: cell-based or functional assay
CK1δ (h) (human) = CK1δ (h) (human) (UniProt P48730)
[1] = target: CDK9/cyclin T1 (h) (human) (UniProt P50750)
STK33 (h) (human) = STK33 (h) (human) (UniProt Q9BYT3)
Flt3 (h) (human) = target: T1, Flt3 (h) (human) (UniProt P36888)
T1 sequence (looked up): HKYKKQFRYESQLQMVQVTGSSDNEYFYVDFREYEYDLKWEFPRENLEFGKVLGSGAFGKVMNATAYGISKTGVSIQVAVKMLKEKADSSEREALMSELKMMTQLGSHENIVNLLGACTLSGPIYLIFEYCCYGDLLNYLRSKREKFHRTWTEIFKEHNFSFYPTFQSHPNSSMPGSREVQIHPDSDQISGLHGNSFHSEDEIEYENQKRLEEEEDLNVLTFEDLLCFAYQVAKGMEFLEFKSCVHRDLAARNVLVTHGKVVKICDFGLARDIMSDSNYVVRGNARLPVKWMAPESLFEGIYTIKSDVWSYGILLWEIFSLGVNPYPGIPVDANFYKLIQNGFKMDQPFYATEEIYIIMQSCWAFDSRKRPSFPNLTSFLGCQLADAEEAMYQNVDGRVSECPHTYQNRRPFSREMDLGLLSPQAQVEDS

MSK1 (h) (human) = MSK1 (h) (human) (UniProt O75582)
[2] = target: BDNF/NT-3 growth factors receptor (human) (UniProt Q16620)
JNK1α1 (h) (human) = JNK1α1 (h) (human) (UniProt P45983)
Pim-1 (h) (human) = Pim-1 (h) (human) (UniProt P11309)
p70S6K (h) (human) = p70S6K (h) (human) (UniProt P23443)
FGFR1(V561M) (h) (human) = FGFR1(V561M) (h) (human) (UniProt P11362)
FGFR1(V561M) (h) (human), sequence (P11362 456-765 V561M limits assumed): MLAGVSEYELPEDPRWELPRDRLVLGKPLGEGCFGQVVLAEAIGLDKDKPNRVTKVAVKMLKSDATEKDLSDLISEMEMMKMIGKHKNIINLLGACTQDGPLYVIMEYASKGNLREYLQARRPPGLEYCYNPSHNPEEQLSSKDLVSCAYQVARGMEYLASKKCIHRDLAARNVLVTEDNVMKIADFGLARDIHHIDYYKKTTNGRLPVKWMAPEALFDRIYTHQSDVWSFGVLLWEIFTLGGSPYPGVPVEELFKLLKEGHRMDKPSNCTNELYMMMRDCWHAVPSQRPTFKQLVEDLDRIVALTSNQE

cKit (h) (human) = cKit (h) (human) (UniProt P10721)
cKit (h) (human), sequence (P10721 544-976): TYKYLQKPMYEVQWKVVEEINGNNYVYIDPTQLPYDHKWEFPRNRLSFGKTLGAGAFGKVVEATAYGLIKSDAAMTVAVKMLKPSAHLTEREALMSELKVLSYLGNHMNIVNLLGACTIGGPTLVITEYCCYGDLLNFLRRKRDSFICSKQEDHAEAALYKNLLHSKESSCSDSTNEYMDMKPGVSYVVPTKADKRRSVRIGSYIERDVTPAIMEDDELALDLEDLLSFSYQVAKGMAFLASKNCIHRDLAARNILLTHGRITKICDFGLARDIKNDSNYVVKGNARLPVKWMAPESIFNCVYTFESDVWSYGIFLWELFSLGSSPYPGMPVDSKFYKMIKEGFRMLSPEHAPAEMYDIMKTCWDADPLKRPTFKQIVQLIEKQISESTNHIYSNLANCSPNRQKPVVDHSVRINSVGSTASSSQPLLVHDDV

Fgr (h) (human) = Fgr (h) (human) (UniProt P09769)
CaMKIIβ (h) (human) = CaMKIIβ (h) (human) (UniProt Q13554)
CaMKIIβ (h) (human), sequence (Q13554 whole entry): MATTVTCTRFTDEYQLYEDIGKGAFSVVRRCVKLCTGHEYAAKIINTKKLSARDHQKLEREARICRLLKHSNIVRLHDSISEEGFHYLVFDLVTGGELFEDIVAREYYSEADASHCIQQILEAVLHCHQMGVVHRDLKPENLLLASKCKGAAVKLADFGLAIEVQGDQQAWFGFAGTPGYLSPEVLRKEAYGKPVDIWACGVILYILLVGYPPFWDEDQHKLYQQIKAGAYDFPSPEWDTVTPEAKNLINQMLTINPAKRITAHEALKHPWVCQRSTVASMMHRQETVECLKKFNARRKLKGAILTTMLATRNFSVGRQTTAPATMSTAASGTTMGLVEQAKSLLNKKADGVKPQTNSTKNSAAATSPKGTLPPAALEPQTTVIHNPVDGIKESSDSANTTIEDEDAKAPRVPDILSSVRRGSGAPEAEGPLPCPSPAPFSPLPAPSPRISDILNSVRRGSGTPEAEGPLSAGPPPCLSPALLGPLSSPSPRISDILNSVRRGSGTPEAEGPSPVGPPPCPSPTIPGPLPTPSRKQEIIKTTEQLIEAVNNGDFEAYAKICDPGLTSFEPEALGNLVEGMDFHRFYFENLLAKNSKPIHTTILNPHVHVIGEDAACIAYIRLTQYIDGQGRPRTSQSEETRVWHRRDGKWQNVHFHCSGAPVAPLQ

ROCK-II (h) (human) = ROCK-II (h) (human) (UniProt O75116)
Abl (H396P) (h) (human) = Abl (H396P) (h) (human) (UniProt P00519)
Abl (H396P) (h) (human), sequence (P00519 27-1130 H396P limits assumed): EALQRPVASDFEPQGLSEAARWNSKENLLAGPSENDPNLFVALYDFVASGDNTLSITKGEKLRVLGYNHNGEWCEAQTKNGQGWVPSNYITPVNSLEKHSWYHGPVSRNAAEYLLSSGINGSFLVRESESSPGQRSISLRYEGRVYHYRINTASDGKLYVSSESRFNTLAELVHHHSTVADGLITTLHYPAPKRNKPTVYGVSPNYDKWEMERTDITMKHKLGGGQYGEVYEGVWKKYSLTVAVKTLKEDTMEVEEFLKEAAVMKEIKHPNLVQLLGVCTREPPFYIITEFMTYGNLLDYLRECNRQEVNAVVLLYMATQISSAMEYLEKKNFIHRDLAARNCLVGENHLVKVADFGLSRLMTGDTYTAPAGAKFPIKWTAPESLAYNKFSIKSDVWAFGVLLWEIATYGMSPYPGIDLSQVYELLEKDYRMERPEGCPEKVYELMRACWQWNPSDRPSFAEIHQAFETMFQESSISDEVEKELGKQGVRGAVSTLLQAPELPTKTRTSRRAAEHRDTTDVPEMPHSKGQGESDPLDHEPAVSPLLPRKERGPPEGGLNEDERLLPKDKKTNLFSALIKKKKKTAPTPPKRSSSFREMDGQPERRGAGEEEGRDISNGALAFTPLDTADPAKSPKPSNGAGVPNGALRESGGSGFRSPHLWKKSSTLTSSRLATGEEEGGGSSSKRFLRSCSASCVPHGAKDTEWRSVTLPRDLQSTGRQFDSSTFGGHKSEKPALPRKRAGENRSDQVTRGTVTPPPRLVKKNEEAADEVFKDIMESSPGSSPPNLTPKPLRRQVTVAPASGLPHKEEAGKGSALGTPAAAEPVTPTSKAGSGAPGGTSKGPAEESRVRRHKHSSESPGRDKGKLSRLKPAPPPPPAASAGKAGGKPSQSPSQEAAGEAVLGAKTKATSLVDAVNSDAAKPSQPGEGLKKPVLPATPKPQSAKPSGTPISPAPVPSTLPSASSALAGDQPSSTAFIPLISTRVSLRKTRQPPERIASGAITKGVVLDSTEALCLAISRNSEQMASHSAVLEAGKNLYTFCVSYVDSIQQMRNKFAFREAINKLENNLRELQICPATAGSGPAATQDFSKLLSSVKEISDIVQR

Mer (h) (human) = target: T2, Mer (h) (human) (UniProt Q12866)
T2 sequence (looked up): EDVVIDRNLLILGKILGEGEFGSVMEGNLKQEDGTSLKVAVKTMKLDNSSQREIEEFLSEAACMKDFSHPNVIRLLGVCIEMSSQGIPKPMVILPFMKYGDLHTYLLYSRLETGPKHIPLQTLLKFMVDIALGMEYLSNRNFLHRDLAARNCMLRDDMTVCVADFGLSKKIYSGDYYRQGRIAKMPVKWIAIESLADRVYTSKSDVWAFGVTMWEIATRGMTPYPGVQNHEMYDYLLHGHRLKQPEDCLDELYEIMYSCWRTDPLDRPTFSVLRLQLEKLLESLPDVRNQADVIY

Fyn (h) (human) = Fyn (h) (human) (UniProt P06241)
DYRK2 (h) (human) = DYRK2 (h) (human) (UniProt Q92630)
Pyk2 (h) (human) = Pyk2 (h) (human) (UniProt Q14289)
CK2 (h) (human) = CK2 (h) (human) (UniProt P68400)
MARK1 (h) (human) = MARK1 (h) (human) (UniProt Q9P0L2)
ErbB4 (h) (human) = ErbB4 (h) (human) (UniProt Q15303)
ErbB4 (h) (human), sequence (Q15303 706-991 limits assumed): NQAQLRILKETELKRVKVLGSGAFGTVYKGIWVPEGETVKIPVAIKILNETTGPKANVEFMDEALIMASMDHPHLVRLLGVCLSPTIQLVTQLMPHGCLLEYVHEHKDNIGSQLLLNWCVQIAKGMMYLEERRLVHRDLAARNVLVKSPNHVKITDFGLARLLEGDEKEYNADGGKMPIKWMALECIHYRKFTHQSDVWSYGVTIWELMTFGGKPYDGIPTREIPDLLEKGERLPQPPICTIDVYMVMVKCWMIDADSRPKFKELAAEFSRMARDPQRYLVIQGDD

BrSK1 (h) (human) = target: T3, BrSK1 (h) (human) (UniProt Q8TDC3)
T3 sequence (looked up): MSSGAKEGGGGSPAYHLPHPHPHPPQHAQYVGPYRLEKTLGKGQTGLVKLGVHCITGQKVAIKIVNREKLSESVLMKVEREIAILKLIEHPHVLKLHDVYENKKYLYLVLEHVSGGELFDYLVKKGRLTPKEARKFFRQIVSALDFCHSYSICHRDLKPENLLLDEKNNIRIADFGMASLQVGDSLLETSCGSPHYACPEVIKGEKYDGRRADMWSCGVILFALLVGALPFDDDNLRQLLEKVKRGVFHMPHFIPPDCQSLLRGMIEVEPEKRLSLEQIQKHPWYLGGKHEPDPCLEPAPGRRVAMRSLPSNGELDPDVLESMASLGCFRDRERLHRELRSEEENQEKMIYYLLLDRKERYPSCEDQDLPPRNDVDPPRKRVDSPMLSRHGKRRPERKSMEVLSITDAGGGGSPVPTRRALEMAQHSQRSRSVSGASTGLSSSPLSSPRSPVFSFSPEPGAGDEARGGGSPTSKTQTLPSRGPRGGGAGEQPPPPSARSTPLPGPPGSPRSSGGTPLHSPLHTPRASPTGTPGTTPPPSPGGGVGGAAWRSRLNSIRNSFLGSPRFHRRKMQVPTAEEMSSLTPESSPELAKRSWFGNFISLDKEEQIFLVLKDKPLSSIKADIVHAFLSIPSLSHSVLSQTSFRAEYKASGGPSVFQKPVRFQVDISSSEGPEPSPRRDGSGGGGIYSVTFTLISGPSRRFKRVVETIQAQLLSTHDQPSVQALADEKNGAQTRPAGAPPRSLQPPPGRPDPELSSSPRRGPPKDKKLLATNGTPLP

AMPKα2 (h) (human) = AMPKα2 (h) (human) (UniProt P54646)
Fer (h) (human) = Fer (h) (human) (UniProt P16591)
[3] = target: Calcium/Calmodulin-Dependent Protein Kinase I (human) (UniProt Q14012)

MMI-0300 (peptide)
% activity at 100 µM (CK1δ (h) (human)): 92% | % activity at 100 µM [1]: 91% | % activity at 100 µM (STK33 (h) (human)): 45% | % activity at 100 µM (Flt3 (h) (human)): 84% | % activity at 100 µM (MSK1 (h) (human)): 32% | % activity at 100 µM [2]: 5% | % activity at 100 µM (JNK1α1 (h) (human)): 97% | % activity at 100 µM (Pim-1 (h) (human)): 8% | % activity at 100 µM (p70S6K (h) (human)): 35% | % activity at 100 µM (FGFR1(V561M) (h) (human)): 74% | % activity at 100 µM (cKit (h) (human)): 53% | % activity at 100 µM (Fgr (h) (human)): 60% | % activity at 100 µM (CaMKIIβ (h) (human)): 2% | % activity at 100 µM (ROCK-II (h) (human)): 74% | % activity at 100 µM (Abl (H396P) (h) (human)): 101% | % activity at 100 µM (Mer (h) (human)): 52% | % activity at 100 µM (Fyn (h) (human)): 74% | % activity at 100 µM (DYRK2 (h) (human)): 155% | % activity at 100 µM (Pyk2 (h) (human)): 47% | % activity at 100 µM (CK2 (h) (human)): 90% | % activity at 100 µM (MARK1 (h) (human)): 132% | % activity at 100 µM (ErbB4 (h) (human)): 40% | % activity at 100 µM (BrSK1 (h) (human)): 67% | % activity at 100 µM (AMPKα2 (h) (human)): 54% | % activity at 100 µM (Fer (h) (human)): 130% | % activity at 100 µM [3]: 1%

Source: patent publication US20160136234A1
